This assay relates to Human peripheral blood monocytes (PBMC). Description: SAA-induced G-CSF secretion in human PBMC (ELISA). It is filed as cell-based. The note with it: SAA 1 μM. Here is the method: SAA induces G-CSF expression in monocytes and macrophages: To determine whether SAA plays a role in neutrophilia, the ability of SAA to stimulate G-CSF expression was investigated. Human peripheral blood monocytes (PBMC) were incubated with SAA, and the concentration of secreted G-CSF in the culture medium was determined at various time points after stimulation. The concentration of SAA used in this experiment (1 μM) was well within its physiological range (0.08 μM to 80 μM). […] Since subsequent studies used mice for measurement of G-CSF secretion and neutrophilia, SAA-induced G-CSF expression in mouse bone marrow derived macrophages (BMDM) was determined, of which 98% were F4/80^+ CD14^+ based on flow cytometry analysis. […] The basal level of G-CSF remained stable at approximately 42 pg/ml/10^6 cells over the entire course of incubation.
Cell preparation and culture: Human peripheral blood monocytes were prepared from fresh, heparinized venous blood by Ficoll-Hypaque density-gradient centrifugation. […]
Measurement of G-CSF expression: To measure the secreted G-CSF from human monocytes and mouse macrophages in vitro, cells were placed in serum-free DMEM medium and stimulated with the indicated ligands. […] Real-time quantitative PCR was performed on a ABI PRISM 7000 Sequence Detection System (Applied Biosystems) as described previously (He et al., 2006). […]
For orientation: An ELISA detects its analyte on a solid surface through an enzyme-linked reagent.

B1: SAA: Recombinant human SAA purchased from PeproTech; major acute-phase protein of 104 amino acids (protein, UniProt P0DJI8 19-122, looked up)
Serum amyloid A-1 protein: RSFFSFLGEAFDGARDMWRAYSDMREANYIGSDKYFHARGNYDAAKRGPGGAWAAEVITDARENIQRFFGHGAEDSLADQAANEWGRSGKDPNHFRPAGLPEKY
In the case of B1, the “secreted G-CSF” value is, setting by setting: (after 4 h of stimulation) 2,546 pg/ml/10^6 cells; (end of 24 h incubation) 7,340 pg/ml/10^6 cells.

The record behind these values is patent US7629135B2, “Toll-like receptor agonists and antagonists and methods of use thereof” (The Board of Trustees of the University of Illinois, priority 2006, dated 2009).
